Laboratory results reported in paper PMC6859792.

Test system: O=P(O)(O)O[C@H]1O[C@H]([C@H](O)CO)[C@@H](O)[C@H](O)[C@@H]1O
Test: purified protein
Conditions: pH 7.4, 25 °C, GTP 1.0 mM, MgCl2 2.0 mM, pyrophosphatase 1 U

## Cj1423 (Campylobacter jejuni subsp. jejuni NCTC 11168 = ATCC 700819)
  Km: 495 ± 65 µM
  kcat: 1.35 ± 0.04 s⁻¹
  kcat/Km: 2700 ± 400 M⁻¹ s⁻¹
